Non-standard residues stand in square brackets, D forms with d. No end group written: not given here. 2Nal = N[C@@H](Cc1ccc2ccccc2c1)C(=O)O; Ahx = NCCCCCC(=O)O
Key:
[1] = target: fibrinogen (human plasma) (human) (UniProt P02671); experiment: affinity chromatography of 5 ml plasma on 0.8 ml peptide resin column
[2] = target: vWF/fVIII complex (human plasma) (human) (UniProt P04275); experiment: batch binding of pooled human plasma to peptide resin, then column elution; fVIII coagulation assay
[3] = target: vWF/fVIII complex (human plasma) (human) (UniProt P04275); experiment: batch binding of 20 ml pooled human plasma to 0.8 ml peptide resin, then column elution; load 21.4 IU; fVIII chromogenic assay
[4] = target: vWF/fVIII complex (human plasma) (human) (UniProt P04275); experiment: batch binding of pooled human plasma to peptide resin, then column elution; load 8.46 IU; fVIII coagulation assay
[5] = target: vWF/fVIII complex (human plasma) (human) (UniProt P04275); experiment: batch binding of pooled human plasma to peptide resin, then column elution; fVIII chromogenic assay
[6] = target: fibrinogen (human plasma) (human) (UniProt P02671); experiment: affinity chromatography of plasma on peptide resin, Evaluation 1; nephelometric fibrinogen antigen
[7] = target: fibrinogen (human plasma) (human) (UniProt P02671); experiment: affinity chromatography of plasma on peptide resin, Evaluation 1, load 51 mg; nephelometric fibrinogen antigen
[8] = target: fibrinogen (human plasma) (human) (UniProt P02671); experiment: affinity chromatography of plasma on peptide resin, ligand density 0.67-0.94 mmol/g resin
[9] = target: fibrinogen (human plasma) (human) (UniProt P02671); experiment: affinity chromatography of plasma on peptide resin, Evaluation 2, load 51 mg; nephelometric fibrinogen antigen
[10] = target: fibrinogen (human plasma) (human) (UniProt P02671); experiment: affinity chromatography of plasma on peptide resin, Evaluation 2; nephelometric fibrinogen antigen
[11] = target: T1, albumin (human plasma) (human, UniProt P02768 25-609); experiment: affinity chromatography of fibrinogen- and Apo-A1-depleted plasma on peptide resin, 0.020 M sodium citrate; nephelometry
T1 construct: mature
Description: Fibrinogen and Apo-A1 lipoprotein-depleted plasma (prepared in Example 5) was loaded at a linear velocity of 30 cm/hour (0.4 ml/min; RT=5.1) onto 2.0 ml column (CF=0.785 cm²) that had been equilibrated with 0.14 M NaCl, 0.020 M sodium citrate, pH 7.0 (EQ buffer). After the column was washed with EQ buffer and 2.0 M NaCl, 0.020 M sodium citrate, pH 6.0, to baseline, the API protein was eluted with 2.0 M NaCl, 1% Tween 20, 0.020 M sodium citrate, pH 6.0. The column was regenerated with 2.0 M guanidine-HCl, 2% Sarkosyl and 2% acetic acid and stored in 20% methanol. […] Not all of the API was quantitatively eluted, but could be eluted using 2M guanidine. Purification of API protein to approximately 70% purity was accomplished with ligand HFVAPH (SEQ ID NO: 46) (isolated from an L-Library).

Question: How did the dynamic resin capacity [1] turn out when “HWQ (SEQ ID NO: 7) peptide attached to a chromatography resin” was run?
Answer: 5 to 8 mg

Question: How did the FVIII recovery in elution 1, 0.75 M NaCl (%), coagulation assay [2] turn out when EAD[2Nal]ED (not fully specified (C-terminus)) [D-EADna2′ED (SEQ ID NO: 66) resin] was run?
Answer: 46%

Question: What about the FVIII recovery in elution 2, 1.0 M NaCl (%), coagulation assay [2] of the same molecule?
Answer: 0%

Question: What about the FVIII recovery in flow-through (%), coagulation assay [2] of the same molecule?
Answer: 18.9%

Question: And the FVIII recovery in wash, 0.5 M NaCl (%), coagulation assay [2]?
Answer: 0%

Question: What about the total FVIII in elution 1, 0.75 M NaCl (IU), coagulation assay [2] of the same molecule?
Answer: 3.9 IU

Question: What about the total FVIII in elution 2, 1.0 M NaCl (IU), coagulation assay [2] of the same molecule?
Answer: 0 IU

Question: What about the total FVIII in wash, 0.5 M NaCl (IU), coagulation assay [2] of the same molecule?
Answer: 0 IU

Question: And the total FVIII in flow-through (IU), chromogenic assay [3]?
Answer: 1.6 IU

Question: What about the total FVIII in flow-through (IU), coagulation assay [4] of the same molecule?
Answer: 1.6 IU

Question: And the FVIII recovery in elution 1, 0.75 M NaCl (%), chromogenic assay [5]?
Answer: 21.5%

Question: What about the FVIII recovery in elution 2, 1.0 M NaCl (%), chromogenic assay [5] of the same molecule?
Answer: 0%

Question: And the FVIII recovery in flow-through (%), chromogenic assay [5]?
Answer: 7.5%

Question: What about the FVIII recovery in wash, 0.5 M NaCl (%), chromogenic assay [5] of the same molecule?
Answer: 5.6%

Question: And the total FVIII in elution 1, 0.75 M NaCl (IU), chromogenic assay [5]?
Answer: 4.6 IU

Question: And the total FVIII in elution 2, 1.0 M NaCl (IU), chromogenic assay [5]?
Answer: 0 IU

Question: What about the total FVIII in wash, 0.5 M NaCl (IU), chromogenic assay [5] of the same molecule?
Answer: 1.2 IU

Question: Which results are given for [dA]RQFDF[Ahx] (also: D- prefix in name, which residues are D is not settled) [D-ARQFDF (SEQ ID NO: 20) peptide displayed on ToyoPearl AF-Amino 650 M resin]?
Answer: fibrinogen in flow thru + post wash [6]: < 0.15 mg/mL; recovery of fibrinogen in elution (%) [6]: 91%; total fibrinogen in elution [7]: 46 mg; dynamic resin capacity [8]: 6 to 8 g/L of resin; total fibrinogen in elution [9]: 54 mg; fibrinogen in flow thru + post wash [10]: < 0.15 mg/mL; recovery of fibrinogen in elution (%) [10]: 100%

Question: Does HFVAPH (also: immobilised on resin via C-terminus, Immobilised on chromatography resin) [L-HFVAPH (SEQ ID NO: 46) peptide ligand displayed on resin] bind [11]?
Answer: no binding

From patent US20030212253A1 (AMERICAN NATIONAL RED CROSS, published 2003)
